The text below walks through data of patent US20240309095A1 (Incyte, published 2024).

The labels stand for the following.
T1: human B7-H4 (purified monomeric recombinant human protein, ACRO biosystems) (human, UniProt Q7Z7D3 29-258, limits assumed, chemically biotinylated (EZ-Link NHS-LC-Biotin) in the yeast display and competition experiments; non-biotinylated in SPR)
T1 construct: Bought recombinant monomeric protein; also called B7x; B7S1
T1 sequence: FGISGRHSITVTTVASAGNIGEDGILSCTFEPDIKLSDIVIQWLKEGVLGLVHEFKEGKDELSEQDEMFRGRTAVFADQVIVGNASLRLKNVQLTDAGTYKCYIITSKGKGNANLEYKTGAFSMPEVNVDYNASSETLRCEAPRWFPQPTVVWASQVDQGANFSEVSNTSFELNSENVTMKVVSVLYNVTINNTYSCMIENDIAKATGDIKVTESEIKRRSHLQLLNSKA

B1: B07 scFv-Fc (scFv, V domains shown)
VH: EVQLVESGGGVVQPGRSLRLSCAASGFTFGDRAMNWVRQAPGKGLEWVSAISGSGATTYYADSVKGRFTISRDNSKNTLYLQMNSLRAEDTAVYYCARKRWYGMDVWGQGTTVTVSS
VL: SYELTQPPSVSVAPGKTARITCGGNNIGSKSVHWYQQKPGQAPVLVVYDDSDRPSGIPERFSGSNSGNTATLTISRVEAGDEADYYCQVWDRGMIFGTGTKLTVL
notes: Tested as scFv-Fc fusion (human IgG1 Fc, vector pDNL9) in crude yeast supernatant; Combo 2 library
B2: A05 scFv-Fc (scFv, V domains shown)
VH: B1 VH with F29Y, G30S, D31S, A56S, T57N, T58A
VL: B1 VL
notes: Tested as scFv-Fc fusion (human IgG1 Fc, vector pDNL9) in crude yeast supernatant; Combo 1 library
B3: A11 scFv-Fc (scFv, V domains shown)
VH: B1 VH with G30S, D31S, A33S, A56S, T58V
VL: B1 VL
notes: as for B1
B4: A01 scFv-Fc (scFv, V domains shown)
VH: B1 VH with G30S, D31N, R32K
VL: B1 VL
notes: as for B2
B5: B04 scFv-Fc (scFv, V domains shown)
VH: B1 VH with T28S, G30S, D31S, I51V, A56S, T57G
VL: B1 VL with S29L
notes: as for B2
B6: A09 scFv-Fc (scFv, V domains shown)
VH: B1 VH with G30S, D31S, A33S, A56L, T58S
VL: B1 VL
notes: as for B1
B7: B03 scFv-Fc (scFv, V domains shown)
VH: B1 VH with A56S, T57G
VL: B1 VL with S29M
notes: as for B2
B8: A10 scFv-Fc (scFv, V domains shown)
VH: B1 VH with G30S, D31S, A33S, S54T, A56Y
VL: B1 VL
notes: as for B1
B9: A02 scFv-Fc (scFv, V domains shown)
VH: B1 VH with G30T, D31S, G53Y, S54E, A56R, T58Q
VL: B1 VL
notes: as for B2
B10: A04 scFv-Fc (scFv, V domains shown)
VH: B1 VH with G30S, D31S, A33S, A56D
VL: B1 VL
notes: as for B2
B11: A08 scFv-Fc (scFv, V domains shown)
VH: B1 VH with G53S, A56T, T58S
VL: B1 VL
notes: as for B1

Numbering of substitutions follows the chain as printed.

In the test the target is T1, human B7-H4 (purified monomeric …). The test can be described thus: SPR (Carterra LSA); scFv-Fc captured on anti-human IgG Fc, antigen injected. The protocol:
Finally, the affinity of the 24 clones was determined using high-throughput surface plasmon resonance (SPR). The supernatants were arrayed by non-covalent capture in a medium-density SPR chip previously coupled with an anti-human polyclonal antibody and (at least 4 replicates per clone). Non-biotinylated antigen was used for all affinity measurements and sensorgrams were fitted using a pseudo-first-order kinetic model (Lundström 1994). […] In fact, it is notable that the off rates for some of the tested antibodies are probably better than 10⁻⁵ (Table 7), as indicated by the bunching of matured antibodies at that value (Table 7)—such slow off rates are challenging to accurately measure using SPR. No affinity difference was observed between clones coming from one combo library versus the other.
The scFv from the final population (round 3, combo libraries) was bulk cloned into a yeast expression vector containing a human IgG1 Fc region to be expressed in the scFv-Fc format. For this, the scFv region was amplified by PCR, digested with BssHII and NheI restriction enzyme (New England Biolabs), and cloned into the pDNL9 vector, 92 clones were analyzed by Sanger sequencing and 24 of these plus the parental were expressed using S. cerevisiae strain YVH10 (ATCC MYA-4940). scFv-Fc fusions were expressed for 72 h at 20° C. in the presence of galactose. The Carterra LSA surface resonance system was used for the affinity measurements. Briefly, anti-Human IgG Fc (Southern Biotech, #2048-01) was covalently coupled to an HC30M chip following the manufacturer's protocols. Crude yeast supernatants containing the scFv-Fc fusions were arrayed on the chip.
Regarding B1, the KD fold-improvement turned out to be 138 fold over parental, the Kd was 0.054 nM, the koff was found to be 1.8e-05 s⁻¹ and the kon came out at 330000 M⁻¹ s⁻¹.
The corresponding values for B2 are 63 fold over parental, 0.117 nM, 2.2e-05 s⁻¹ and 190000 M⁻¹ s⁻¹.
In the case of B3, the KD fold-improvement turned out to be 123 fold over parental, the Kd was 0.06 nM, the koff was 1.1e-05 s⁻¹ and the association rate constant (kon) came to 190000 M⁻¹ s⁻¹.
With B4, the KD fold-improvement was 33 fold over parental, the Kd came out at 0.224 nM, the koff was found to be 3.7e-05 s⁻¹ and the kon amounted to 170000 M⁻¹ s⁻¹.
Turning to B5, the KD fold-improvement is 43 fold over parental, the Kd was 0.172 nM, the koff worked out at 2.7e-05 s⁻¹ and the kon amounted to 160000 M⁻¹ s⁻¹.
For B6 the same measures were 100 fold over parental, 0.074 nM, 1.1e-05 s⁻¹ and 160000 M⁻¹ s⁻¹.
The corresponding values for B7 are 106 fold over parental, 0.07 nM, 2.1e-05 s⁻¹ and 300000 M⁻¹ s⁻¹.
As to B8, the KD fold-improvement came to 72 fold over parental, the Kd came to 0.103 nM, the koff is 1.4e-05 s⁻¹ and the kon is 140000 M⁻¹ s⁻¹.
B9: the KD fold-improvement was determined as 188 fold over parental, the Kd was 0.039 nM, the koff was determined as 1.1e-05 s⁻¹ and the kon amounted to 280000 M⁻¹ s⁻¹.
The corresponding values for B10 are 108 fold over parental, 0.069 nM, 2.1e-05 s⁻¹ and 310000 M⁻¹ s⁻¹.
The corresponding values for B11 are 172 fold over parental, 0.043 nM, 1.3e-05 s⁻¹ and 310000 M⁻¹ s⁻¹.

Usually Kd stands for the free concentration of one partner at which half of the binding sites on the other are occupied at equilibrium, for simple one-to-one binding. As usually defined, the koff is a measure of how fast the partners let go of each other. Usually kon stands for the second-order rate constant of association.
